Test results: patent US20190153097A1

Target: Cynomolgus/Rhesus CTLA-4 (cynomolgus/rhesus)
Assay: ELISA with Cynomolgus/Rhesus CTLA-4 titrated (said to be similar to the mouse CTLA-4 ELISA with coated antibodies)

EC50 (read off the curve): 200 pM
Substance: ipilimumab (human anti-huCTLA-4 marketed as Yervoy) (antibody)
